Reference: article PMC8703291, “Non-Cationic RGD-Containing Protein Nanocarrier for Tumor-Targeted siRNA Delivery” (Pharmaceutics, 2021)

Biological target: the molecule itself
Assay: non-reducing SDS-PAGE; purified dual-RGD under non-reducing conditions, Coomassie blue staining

B1: dual-RGD-dsRBD-18his (dual-RGD) recombinant protein (designed binder)
chain: CDCRGDCFCAGDLSAGFFMEELNTYRQKQGVVLKYQELPNSGPPHDRRFTFQVIIDGREFPEGEGRSKKEAKNAAAKLAVEILNKEKKAVSPLLLTTTNSSEGLSMGNYIGLINRIAQKKRLTVNYEQCASGVHGPEGFHYKCKMGQKEYSIGTGSTKQEAKQLAAKLAYLQILSEETSVGRGDS
notes: cyclic RGD peptide RGD-4C appended to the N-terminal of dsRBD-18His; linear GRGDS (Gly-Arg-Gly-Asp-Ser) peptide added to the C-terminal of dsRBD-18His; MW ~26 kDa (monomer); also called dual-RGD carrier; source: E. coli BL21 (DE3), purified (nickel resin), dialysed against PBS with 10% glycerol and 0.1% β-ME
stoichiometry N: 2
